B1: Protein wntless homolog (Homo sapiens), Q5T9L3 (parent)
chain: MAGAIIENMSTKKLCIVGGILLVFQIIAFLVGGLIAPGPTTAVSYMSVKCVDARKNHHKTKWFVPWGPNHCDKIRDIEEAIPREIEANDIVFSVHIPLPHMEMSPWFQFMLFILQLDIAFKLNNQIRENAEVSMDVSLAYRDDAFAEWTEMAHERVPRKLKCTFTSPKTPEHEGRYYECDVLPFMEIGSVAHKFYLLNIRLPVNEKKKINVGIGEIKDIRLVGIHQNGGFTKVWFAMKTFLTPSIFIIMVWYWRRITMMSRPPVLLEKVIFALGISMTFINIPVEWFSIGFDWTWMLLFGDIRQGIFYAMLLSFWIIFCGEHMMDQHERNHIAGYWKQVGPIAVGSFCLFIFDMCERGVQLTNPFYSIWTTDIGTELAMAFIIVAGICLCLYFLFLCFMVFQVFRNISGKQSSLPAMSKVRRLHYEGLIFRFKFLMLITLACAAMTVIFFIVSQVTEGHWKWGGVTVQVNSAFFTGIYGMWNLYVFALMFLYAPSHKNYGEDQSNGDLGVHSGEELQLTTTITHVDGPTEIYKLTRKEAQE

Variants of: B1
Settings: with wnt3a_human WNT3A

| Variant | effect of a mutation on the interaction |
| --- | --- |
| MAGAIIENMSTKKLCIVGGILLVFQIIAFLVGGLIAPGPTTAVSYMSVKCVDARKNHHKTKWFVPWGPNHCDKIRDIEEAIPREIEANDIVFSVHIPLPHMEMSPWFQFMLFILQLDIAFKLNNQIRENAEVSMDVSLAYRDDAFAEWTEMAHERVPRKLKCTFTSPKTPEHEGRYYECDVLPFMEIGSVAHKFYLLNIRLPVNEKKKINVGIGEIKDIRLVGIHQNGGFTKVWFAMKTFLTPSIFIIMVWYWRRITMMSRPPVLLEKVIFALGISMTFINIPVEWFSIGFDWTWMLLFGDIRQGIFYAMLLSFWIIFCGEHMMDQHERNHIAGYWKQVGPIAVGSFCLFIFDMCERGVQLTNPFYSIWTTDIGTELAMAFIIVAGICLCLYFLFLCFMVFQVFRNISGKQSSLPAMSKVRRLHAEGLIFRFKFLMLITLACAAMTVIFFIVSQVTEGHWKWGGVTVQVNSAFFTGIYGMWNLYVFALMFLYAPSHKNYGEDQSNGDLGVHSGEELQLTTTITHVDGPTEIYKLTRKEAQE [Y425A] | with no effect |

Variants of: B1
Settings: with wnt3a_human WNT3A
Remark: another data set of the same source

| Variant | effect of a mutation on the interaction |
| --- | --- |
| MAGAIIENMSTKKLCIVGGILLVFQIIAFLVGGLIAPGPTTAVSYMSVKCVDARKNHHKTKWFVPWGPNHCDKIRDIEEAIPREIEANDIVFSVHIPLPHMEMSPWFQFMLFILQLDIAFKLNNQIRENAEVSMDVSLAYRDDAFAEWTEMAHERVPRKLKCTFTSPKTPEHEGRYYECDVLPFMEIGSVAHKFYLLNIRLPVNEKKKINVGIGEIKDIRLVGIHQNGGFTKVWFAMKTFLTPSIFIIMVWYWRRITMMSRPPVLLEKVIFALGISMTFINIPVEWFSIGFDWTWMLLFGDIRQGIFYAMLLSFWIIFCGEHMMDQHERNHIAGYWKQVGPIAVGSFCLFIFDMCERGVQLTNPFYSIWTTDIGTELAMAFIIVAGICLCLYFLFLCFMVFQVFRNISGKQSSLPAMSKVRRLHYEGLIFRFKFLMLITLACAAMTVIFFIVSQVTEGHWKWGGVTVQVNSAFFTGIYGMWNLYVFALMFLYAPSHKNYGEDQSNGDLGVHSGEELQLTTTITHVDGPTEIYKLTRAEAQE [K537A] | disrupting interaction strength |
| MAGAIIENMSTKKLCIVGGILLVFQIIAFLVGGLIAPGPTTAVSYMSVKCVDARKNHHKTKWFVPWGPNHCDKIRDIEEAIPREIEANDIVFSVHIPLPHMEMSPWFQFMLFILQLDIAFKLNNQIRENAEVSMDVSLAYRDDAFAEWTEMAHERVPRKLKCTFTSPKTPEHEGRYYECDVLPFMEIGSVAHKFYLLNIRLPVNEKKKINVGIGEIKDIRLVGIHQNGGFTKVWFAMKTFLTPSIFIIMVWYWRRITMMSRPPVLLEKVIFALGISMTFINIPVEWFSIGFDWTWMLLFGDIRQGIFYAMLLSFWIIFCGEHMMDQHERNHIAGYWKQVGPIAVGSFCLFIFDMCERGVQLTNPFYSIWTTDIGTELAMAFIIVAGICLCLYFLFLCFMVFQVFRNISGKQSSLPAMSKVRRLHYEGLIFRFKFLMLITLACAAMTVIFFIVSQVTEGHWKWGGVTVQVNSAFFTGIYGMWNLYVFALMFLYAPSHKNYGEDQSNGDLGVHSGEELQLTTTITHVDGPTEIYKLTRKEAAE [Q540A] | with no effect |
| MAGAIIENMSTKKLCIVGGILLVFQIIAFLVGGLIAPGPTTAVSYMSVKCVDARKNHHKTKWFVPWGPNHCDKIRDIEEAIPREIEANDIVFSVHIPLPHMEMSPWFQFMLFILQLDIAFKLNNQIRENAEVSMDVSLAYRDDAFAEWTEMAHERVPRKLKCTFTSPKTPEHEGRYYECDVLPFMEIGSVAHKFYLLNIRLPVNEKKKINVGIGEIKDIRLVGIHQNGGFTKVWFAMKTFLTPSIFIIMVWYWRRITMMSRPPVLLEKVIFALGISMTFINIPVEWFSIGFDWTWMLLFGDIRQGIFYAMLLSFWIIFCGEHMMDQHERNHIAGYWKQVGPIAVGSFCLFIFDMCERGVQLTNPFYSIWTTDIGTELAMAFIIVAGICLCLYFLFLCFMVFQVFRNISGKQSSLPAMSKVRRLHYEGLIFRFKFLMLITLACAAMTVIFFIVSQVTEGHWKWGGVTVQVNSAFFTGIYGMWNLYVFALMFLYAPSHKNYGEDQSNGDLGVHSGEELQLTTTITHVDGPTEIYKLTAKEAQE [R536A] | with no effect |
| MAGAIIENMSTKKLCIVGGILLVFQIIAFLVGGLIAPGPTTAVSYMSVKCVDARKNHHKTKWFVPWGPNHCDKIRDIEEAIPREIEANDIVFSVHIPLPHMEMSPWFQFMLFILQLDIAFKLNNQIRENAEVSMDVSLAYRDDAFAEWTEMAHERVPRKLKCTFTSPKTPEHEGRYYECDVLPFMEIGSVAHKFYLLNIRLPVNEKKKINVGIGEIKDIRLVGIHQNGGFTKVWFAMKTFLTPSIFIIMVWYWRRITMMSRPPVLLEKVIFALGISMTFINIPVEWFSIGFDWTWMLLFGDIRQGIFYAMLLSFWIIFCGEHMMDQHERNHIAGYWKQVGPIAVGSFCLFIFDMCERGVQLTNPFYSIWTTDIGTELAMAFIIVAGICLCLYFLFLCFMVFQVFRNISGKQSSLPAMSKVRRLHYEGLIFRFKFLMLITLACAAMTVIFFIVSQVTEGHWKWGGVTVQVNSAFFTGIYGMWNLYVFALMFLYAPSHKNYGEDQSNGDLGVHSGEELQLTTTITHVDGPTEIYKLTRKEAQA [E541A] | with no effect |
| MAGAIIENMSTKKLCIVGGILLVFQIIAFLVGGLIAPGPTTAVSYMSVKCVDARKNHHKTKWFVPWGPNHCDKIRDIEEAIPREIEANDIVFSVHIPLPHMEMSPWFQFMLFILQLDIAFKLNNQIRENAEVSMDVSLAYRDDAFAEWTEMAHERVPRKLKCTFTSPKTPEHEGRYYECDVLPFMEIGSVAHKFYLLNIRLPVNEKKKINVGIGEIKDIRLVGIHQNGGFTKVWFAMKTFLTPSIFIIMVWYWRRITMMSRPPVLLEKVIFALGISMTFINIPVEWFSIGFDWTWMLLFGDIRQGIFYAMLLSFWIIFCGEHMMDQHERNHIAGYWKQVGPIAVGSFCLFIFDMCERGVQLTNPFYSIWTTDIGTELAMAFIIVAGICLCLYFLFLCFMVFQVFRNISGKQSSLPAMSKVRRLHYEGLIFRFKFLMLITLACAAMTVIFFIVSQVTEGHWKWGGVTVQVNSAFFTGIYGMWNLYVFALMFLYAPSHKNYGEDQSNGDLGVHSGEELQLTTTITHVDGPTEIYKLTRKAAQE [E538A] | with no effect |

Source: IntAct's records for PubMed 24768165
